Consider 2 molecules from patent publication US20190002588A1 (NATIONAL UNIVERSITY CORPORATION CHIBA UNIVERSITY, published 2019).

Where a chain is given by its changes, count along the chain named.

In one experiment the target is T1, mouse Myl12b-His (mouse, UniProt Q3THE2 1-172, limits assumed).
T1 construct: Made in E. coli; GST tag cleaved with PreScission Protease; DTT-treated monomer
T1 sequence: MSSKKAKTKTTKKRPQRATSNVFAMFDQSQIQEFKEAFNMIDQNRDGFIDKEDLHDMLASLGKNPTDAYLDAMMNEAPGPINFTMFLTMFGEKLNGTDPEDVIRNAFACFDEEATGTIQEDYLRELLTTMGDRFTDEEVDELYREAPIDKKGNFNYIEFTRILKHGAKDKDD
Briefly: ELISA, mouse Myl12b-His coated, anti-mouse IgG-HRP. The procedure:
(§1) The binding ability of Antibody A against mouse/human Myl12a and Myl12b was evaluated following the steps below by ELISA. Mouse Myl3-His, mouse Myl9-His, mouse Myl12a-His, mouse Myl12b-His, human Myl3-His, human Myl9-His, human Myl12a-His, and human Myl12b-His were coated onto the wells of a 96-well plate (Nunc). After an overnight incubation at 4° C., the wells were blocked at room temperature for one hour with 1× Block Ace (DS Pharma Biomedical Co., Ltd.). After washing three times with 0.02% Tween 20/PBS, eleven serial dilutions by four folds of Antibody A were made from a concentration of 10 μg/mL and added to the wells. After incubation at room temperature for one hour and washing three times, horseradish peroxidase-labeled anti-mouse IgG antibody (Jackson ImmunoResearch Laboratories) was added, and this was incubated at room temperature for one hour. After washing 5 times, TMBZ (3,3′,5,5′-tetramethylbenzidine) solution was added to the wells, and this was incubated for 5-20 minutes at room temperature. An equal amount of reaction quenching solution (2N H₂SO₄) was added to the wells, and absorbance at […] was read with a microplate reader (Thermo Scientific).
For orientation: An ELISA detects its analyte on a solid surface through an enzyme-linked reagent.

Experiment [1] has as its target T2, human Myl3-His (human, UniProt P08590 2-195, limits assumed).
T2 construct: Made in E. coli; the GST tag was cleaved with PreScission Protease
Description: ELISA, human Myl3-His coated, anti-mouse IgG-HRP. The procedure:
(§2) The binding ability against mouse/human Myl9 was evaluated following the steps below by ELISA. Mouse Myl3-His, mouse Myl9-His, human Myl3-His, and human Myl9-His were coated onto the wells of a 96-well plate (Nunc). After an overnight incubation at 4° C., the wells were blocked at room temperature for one hour with 1× Block Ace (DS Pharma Biomedical Co., Ltd.). After washing three times with 0.02% Tween 20/PBS, ten serial dilutions by four folds of Antibody A were made from a concentration of 10 μg/mL and added to the wells. After incubation at room temperature for one hour and washing three times, horseradish peroxidase-labeled anti-mouse IgG antibody (Jackson ImmunoResearch Laboratories) was added, and this was incubated at […] temperature for one hour. After washing 5 times, TMBZ (3,3′,5,5′-tetramethylbenzidine) solution was added to the wells, and this was incubated for 5-20 minutes at room temperature. An equal amount of reaction quenching solution (2N H₂SO₄) was added to the wells, and absorbance at 450 nm was read with a microplate reader (PerkinElmer).

For experiment [2], the target named is T3, human Myl9-His (human, UniProt P24844 2-172, limits assumed).
T3 construct: Made in E. coli; the GST tag was cleaved with PreScission Protease
T3 sequence: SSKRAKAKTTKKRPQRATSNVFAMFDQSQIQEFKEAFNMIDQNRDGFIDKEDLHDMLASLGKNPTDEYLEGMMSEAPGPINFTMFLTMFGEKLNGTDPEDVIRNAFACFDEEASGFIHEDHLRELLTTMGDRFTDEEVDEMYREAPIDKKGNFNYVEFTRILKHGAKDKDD
Briefly: ELISA, human Myl9-His coated, anti-mouse IgG-HRP. The procedure:
as §2

The target in experiment [3] is T4, mouse/human Myl9 peptide-BSA (mouse and human (common sequence), added C-terminal Cys coupled to maleimide-activated BSA).
T4 construct: Synthetic peptide conjugated to bovine serum albumin
T4 peptide: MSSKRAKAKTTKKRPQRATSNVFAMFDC
Description: ELISA, mouse/human Myl9 peptide-BSA coated, hybridoma supernatant. The procedure: ELISA employing mouse/human Myl9 peptide-BSA was carried out according to the following steps. Mouse/human Myl9 peptide-BSA was coated onto the wells of a 96-well plate (Num). After an overnight incubation at 4° C., the wells were blocked at room temperature for one hour with 1× Block Ace (DS Pharma Biomedical Co., Ltd.). After washing three times with 0.02% Tween 20/PBS, the culture supernatant of said fused cells was added to the wells. After incubation at room temperature for one hour and washing three times, horseradish peroxidase-labeled anti-mouse IgG antibody (Jackson ImmunoResearch Laboratories) was added, and this was incubated at room temperature for one hour. After washing 5 times, TMBZ (3,3′,5,5′-tetramethylbenzidine) solution was added to the wells, and this was incubated for 5-20 minutes at room temperature. An equal amount of reaction quenching solution (2N H₂SO₄) was added to the wells, and absorbance at 450 nm was read with a microplate reader (PerkinElmer).

The target of the next experiment is T5, mouse Myl9-His (mouse, UniProt Q9CQ19 2-172, limits assumed).
T5 construct: Made in E. coli; the GST tag was cleaved with PreScission Protease and leftover vector residues are not described
T5 sequence: T3 sequence with S74N
Briefly: ELISA, mouse Myl9-His coated, anti-mouse IgG-HRP. How it is done: as §2

Experiment [4] addresses T6, human Myl12b-His (human, UniProt O14950 1-172).
T6 construct: Made in E. coli; GST tag cleaved with PreScission Protease; DTT-treated monomer
T6 sequence: T1 sequence
Briefly: ELISA, human Myl12b-His coated, anti-mouse IgG-HRP. The procedure:
as §1

The target in experiment [5] is T7, human Myl12a-His (human, UniProt P19105 1-171).
T7 construct: Made in E. coli; GST tag cleaved with PreScission Protease; DTT-treated monomer
T7 sequence: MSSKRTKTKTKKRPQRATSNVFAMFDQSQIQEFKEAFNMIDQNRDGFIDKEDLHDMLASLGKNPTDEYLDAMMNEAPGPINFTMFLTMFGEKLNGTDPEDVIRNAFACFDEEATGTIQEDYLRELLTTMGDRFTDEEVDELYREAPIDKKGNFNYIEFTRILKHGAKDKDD
Description: ELISA, human Myl12a-His coated, anti-mouse IgG-HRP. How it is done:
as §1

The next experiment has as its target T8, mouse Myl3-His (mouse, UniProt P09542 2-204, limits assumed).
T8 construct: Made in E. coli; the GST tag was cleaved with PreScission Protease
Briefly: ELISA, mouse Myl3-His coated, anti-mouse IgG-HRP. The procedure:
as §2

In another experiment the target is T9, mouse Myl12a-His (mouse, UniProt Q3THE2 1-172 at identity 1.00), limits assumed).
T9 construct: Made in E. coli; GST tag cleaved with PreScission Protease; DTT-treated monomer
T9 chain: T1 sequence with K5R, L61M, A68E, T115I
Briefly: ELISA, mouse Myl12a-His coated, anti-mouse IgG-HRP. How it is done:
as §1

Experiment [6] has as its target T2, human Myl3-His. Description: ELISA, human Myl3-His coated, pH 5.5 buffer, anti-Flag-HRP. How it is done: (§3) Evaluation of binding between human Myl9, Myl12a and Myl12b and human CD69 extracellular region protein was carried out by ELISA. Human Myl3-His, human Myl9-His, human Myl12a-His and human Myl12b-His prepared in Example 5 were coated onto the wells of a 96-well plate (Nunc), respectively. After an overnight incubation at 4° C., the wells were blocked at room temperature for one hour with 1× Block Ace (DS Pharma Biomedical Co., Ltd.). After washing three times with 0.02% Tween 20/PBS, six serial dilutions by three folds of 3× Flag-human CD69 EC protein were made from a concentration of 10 μg/mL by 50 mM NaOAc (pH 5.5)/150 mM NaCl/0.02% Tween 20 and added to the wells. After incubation at room temperature for one and half hour and washing three times with 50 mM NaOAc (pH 5.5)/150 mM NaCl/0.02% Tween 20, horseradish peroxidase-labeled anti-Flag (M2) antibody (SIGMA) was added, and this was incubated at room temperature for one hour. After washing 5 times, TMBZ (3,3′,5,5′-tetramethylbenzidine) solution was added to the wells, and this was incubated for 5-20 minutes at room temperature. An equal amount of reaction quenching solution (2N H₂SO₄) was added to the wells, and absorbance at 450 nm was read with a microplate reader (Thermo Scientific).

The target of experiment [7] is T6, human Myl12b-His. Briefly: ELISA, human Myl12b-His coated, anti-Flag-HRP. How it is done: as §3
For experiment [8], the target named is T7, human Myl12a-His. Description: ELISA, human Myl12a-His coated, anti-Flag-HRP. The procedure:
as §3

For experiment [9], the target named is T3, human Myl9-His. Briefly: ELISA, human Myl9-His coated, anti-Flag-HRP. How it is done: as §3

T2 sequence (P08590 2-195 limits assumed): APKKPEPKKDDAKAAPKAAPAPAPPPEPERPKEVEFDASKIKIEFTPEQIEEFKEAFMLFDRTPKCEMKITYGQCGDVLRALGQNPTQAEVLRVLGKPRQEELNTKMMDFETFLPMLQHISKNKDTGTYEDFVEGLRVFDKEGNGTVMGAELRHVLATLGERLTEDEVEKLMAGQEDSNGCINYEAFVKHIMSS
T8 sequence (P09542 2-204 limits assumed): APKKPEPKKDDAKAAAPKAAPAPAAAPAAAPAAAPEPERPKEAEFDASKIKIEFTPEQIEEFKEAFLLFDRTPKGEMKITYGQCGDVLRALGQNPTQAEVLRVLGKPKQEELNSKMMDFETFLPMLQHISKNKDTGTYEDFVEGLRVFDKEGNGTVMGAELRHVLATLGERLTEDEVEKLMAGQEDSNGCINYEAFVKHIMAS

B1: mouse anti-mouse/human Myl9 monoclonal antibody (Antibody A) (antibody, V domains shown)
VH: QVQLQQSGAEVVRPGASVTLSCKASGYTFTDYEMHWVKQTPVHGLEWIGAIDPETGGTAYNQKFKGKAILTADKSSNTAYMELRSLTSEDSAVYYCTDYDYDGFAYWGQGTLVTVSA
VL: DVVMTQTPLSLPVSLGDQASISCRSSQSLVHSNGNTYLHWYLQKPGRSPKLLISKVSNRFSGVPDRFSGSGSGTDFTLKITRVEAEDLGVYFCSQNTHVPPLTFGAGTKLELK
notes: Hybridoma antibody purified with Protein A; isotype printed as 'IgG2e, kappa'; also called mAb A; anti-mouse/human Myl9 antibody
As for B1, the binding result is on record as “binds” with mouse Myl12b-His; “no binding (tested: 10 µg/mL)” with human Myl3-His [1]; “binds” with human Myl9-His [2]; “binds” in [3]; “binds” in the experiment with mouse Myl9-His; “binds” with human Myl12b-His [4]. Also, the binding result in the experiment with human Myl12a-His [5] is on record as “binds”; with mouse Myl3-His it was “no binding (tested: 10 µg/mL)”; with mouse Myl12a-His it was “binds”.

B2: 3× Flag-human CD69 EC protein (receptor, not shown: small tags and cut ends)
chain: GQYNCPGQYTFSMPSDSHVSSCSEDWVGYQRKCYFISTVKRSWTSAQNACSEHGATLAVIDSEKDMNFLKRYAGREEHWVGLKKEPGHPWKWSNGKEFNNWFNVTGSDKCVFLKNTEVSSMECEKNLYWICNKPYK
notes: Made in Expi293F cells and purified on Anti-Flag M2 gel; The dimerized protein was collected by Superdex200 or Superdex75; also called human CD69 extracellular region protein; extracellular region of human CD69
Consider B2, for which the binding result with human Myl3-His [6] was “no binding (tested: 10 µg/mL)”; in the experiment with human Myl12b-His [7], “binds”; with human Myl12a-His [8], “binds”; in the experiment with human Myl9-His [9], “binds”.
